Data: paper PMC10214136 (Proceedings of the National Academy of Sciences of the …, 2023)
Where two headings read alike, the source gives them in different places.

Experiments:
[1] = biological target: FtsEX complex (Pseudomonas aeruginosa), wild type, in peptidiscs (Pseudomonas aeruginosa); experiment: cryo-EM structure
cryo-EM structure [2] = biological target: the molecule itself; experiment: cryo-EM structure
[3] = biological target: T1, FtsE (Pseudomonas aeruginosa), wild type (Pseudomonas aeruginosa, UniProt A0A069QBX1 1-223); experiment: co-purification
T1 sequence: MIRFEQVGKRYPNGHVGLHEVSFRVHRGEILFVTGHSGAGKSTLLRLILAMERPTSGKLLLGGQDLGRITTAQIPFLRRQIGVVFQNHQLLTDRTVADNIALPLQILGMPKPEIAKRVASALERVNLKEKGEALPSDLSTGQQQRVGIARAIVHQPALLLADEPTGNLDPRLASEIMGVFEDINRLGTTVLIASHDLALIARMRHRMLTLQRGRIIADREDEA

purified protein = substrate: Nc1ncnc2c1ncn2[C@@H]1O[C@H](COP(=O)(O)OP(=O)(O)OP(=O)(O)O)[C@@H](O)[C@H]1O; experiment: purified protein; settings: ATP/MgCl2, pH 7.5, 37 °C, FtsEX in peptidiscs with EnvC
cryo-EM structure [4] = biological target: the molecule itself; experiment: cryo-EM structure; remark: listed apart in the source
[5] = biological target: FtsE^E163QX–EnvC complex (Pseudomonas aeruginosa) (Pseudomonas aeruginosa); experiment: cryo-EM structure

## EnvC (Pseudomonas aeruginosa), envC^Δ19 construct, wild type (natural protein)
[1]
  stoichiometry N (EnvC per FtsE2-FtsX2 complex): 1

B1: FtsX (Pseudomonas aeruginosa) (natural protein)
chain: MSANDLPRGPEEGAPERKTREKPSQEQTDWSGSFSAYLESHRASLVDSLRRLFGHPFGSFFTCLVMGITLSLPMGLSLLLNNVERLGGSWQRAAQISLFLDLKTSENQGQDLREQIERLPDVIEAQLISREQALSELQEQSGLGEALKELPENPLPPVISVTPKQIDRAGLEALRQQLAELPHVQQAQLDLVWVERLSAILKLGERFVFGLTILLVLTLLLVVGNTIRLHIENRRNEIEVIKLVGGTDGYVRRPFLYMGALYGLGAGILSWALLAYSLNWLNGSVVNLSGLYGSDFGLQGVPLDDGLSLTVGAVLLGWVGAWLAVARHLRELAPR
cryo-EM structure [2]
  stoichiometry N: 2
[3]
  stoichiometry N: 1 FtsE:FtsX molar ratio

B2: FtsEX/EnvC (FtsEX–EnvC complex) (Pseudomonas aeruginosa PAO1) (protein)
chain: MIRFEQVGKRYPNGHVGLHEVSFRVHRGEILFVTGHSGAGKSTLLRLILAMERPTSGKLLLGGQDLGRITTAQIPFLRRQIGVVFQNHQLLTDRTVADNIALPLQILGMPKPEIAKRVASALERVNLKEKGEALPSDLSTGQQQRVGIARAIVHQPALLLADEPTGNLDPRLASEIMGVFEDINRLGTTVLIASHDLALIARMRHRMLTLQRGRIIADREDEA
Purified protein
  Km: 230 µM

B3: FtsE^E163Q (Pseudomonas aeruginosa) (natural protein)
chain: MIRFEQVGKRYPNGHVGLHEVSFRVHRGEILFVTGHSGAGKSTLLRLILAMERPTSGKLLLGGQDLGRITTAQIPFLRRQIGVVFQNHQLLTDRTVADNIALPLQILGMPKPEIAKRVASALERVNLKEKGEALPSDLSTGQQQRVGIARAIVHQPALLLADQPTGNLDPRLASEIMGVFEDINRLGTTVLIASHDLALIARMRHRMLTLQRGRIIADREDEA
cryo-EM structure [4]
  stoichiometry N: 2

B4: AmiB (Pseudomonas aeruginosa), amiB^Δ29 construct (enzyme)
chain: SLLQAHLSHRSALRSRFRFDPAAVMDCLRAEVLGQDPALQAVEDMLKVVRADIADPRRPLFSALFLGPTGVGKTEIVRALARALHGDAEGFCRVDMNTLSQEHYAAALTGAPPGYVGAKEGTTLLEQDKLDGSPGRPGIVLFDELEKASPEVVHALLNVLDNGLLRVASGERTYHFRNTLVFMTSNLCAHEIQRYDERRQRLPWRLLPVGGERRRRDIDGMVRARLLKTFSPEFVNRLDSVVTFNWIERDVVARLVELEVQRLNRRLEKHRCRLEATPEVLAKIARAGFDRQFGARALRRSVRHHLEVPLAEHLLDHHQPGDGNCTTYLASLEHERVRFVRR
[5]
  stoichiometry N (AmiB per FtsE2-FtsX2-EnvC complex): 1
